Assay results from a protein production outcome set (Wang et al. 2014).

Assay: label from the status in PepcDB records
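Also: failed if final PepcDB status was selected cloned or expressed and not failed if soluble or beyond.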

| Sequence | protein production |
| --- | --- |
| MSTASGITMASMSTYAILGCGSVGHAVAEELVEEGKDVLILDADEGRVEALRDQDLNAQQADICETDVAQTVADRDVVLIMSPDVNANAEAVRNIRESGGEQFIVARADDPVSADDLTELGADVVINPSAVIADSALRALETGELEYKASQLGDVIDGTEERMAILIHRSPDPDSIASAAALRAIAASRDVDADIIYEGEIGHQENRAFVNLLGIELTSNEDVNLDEYDTFALVDVAKGGEPAVESVDIVIDHYEHEHELEHDAAFSDIRPNISATSTILTKYIQELDLNLDQSVATALLYGIRAETLDFKRDTTPADLTAAAYLYPFADHDTLEQVESPSMSPETLDVLAEAIRNREVQGSHLVSNAGFIRDRDALAQAAQHLLNLEGITTTAVFAIADDTIYLAARSKDIRMNIGKVLSDAFGGMGETAGHSTDASVEIPLGIFTGLDTSDDNRDTLLELTEEAVKRKLFEAMGVDSSSSESSNGN | not failed |
| MLRYSFRSIKRNFASSLLLVGALVAIFVASPLSFSMLSSIQAEVDANIKQYARGSYDLLIRPIGTQTAVETTLGVVEENYLALGEGGISLNEWETIKALDGVEVAAPVASLGYFAGETHTVAVEFPNNSSFIEGRFQTSDGLHTYPLQAGGSYYVLEQEGYYYGYEYVQQGNEEIPGSGGPPFFSMPVTYHLIVGIDQQEEEKLTGFNFSALNNSIPEGFRFYFDLDVERHIKIIYLKDATTPLTVQVDVAPIDWETADTERLKDELGLTYDEPLFISEQFPSLFTQFQDRHIGPIETYTFDLSEHMPPFSYDPVSLDYDGSMHEPIENAYGVSESSRFYQASPIDYDIQAGGRLKVKQVGDYEGIPIYRTIQEQGGAAYELHGIGKIPFLLYPVGHFTTAEYEHSLSASPLGIYQQAPSVLSDGTMLHETIAPGSFVNAPAHGLMALEDAAFIKGDAPIDAIRIRVAGITAYDQEAVDKMSQVATEIAKLGDYQIDVIAGASPAPMTMDVEGIGEVVQPWTSLGAAATIRDGWNGTNVLIAGLFLFVSISYLANRFHFRRHTKKEEQELLLDLGWKKRHIRWLYLMENSSLIFLSAAIASLILLAYIWLYQADWFILIFFVAVVVLTFLFSLIYVSMMRGVQKISFRRLKGQTVWIRNLFYYRRLLTLSIIQLASVALLLAFVVSSIAATIAQTGGTYLGVYINDAVFIPLVSIMVAALFLAVLTVGESTSAFLLLRKEELQTLRDIGWRIKDVHRLCLKESAVWTTGAIMGGVVISLLTVSVFYSLSLSFLLFAGVAVVLLSSIAIVTAGGMIRSSLRKMA | failed |
| MQATMTDKNTRELLLDAATTLFAEQGIAATTMAEIAASVGVNPAMIHYYFKTRDSLLDTIIEERIGRIIDMIWEPVTGEEDDPLIMVRDLVNRIVNTCETMLWLPSLWIREIVNEGGALREKMLNNIPIDKMNKFSAKIAEGQKQGVINSGIDSRLLIGSIIGLTMLPLATAKLRDQIPTMKGLSSEDIVCHVTALLFTGLTNPSNSDDIKKQRT | not failed |
| MIRFTMMPGEDGDCLLLEYGDGTFLRRILLDGGRSGTYPRIRPTLAGLDGLVDVLVVTHVDQDHLLGVLALLNDPDRSVEFGDVWFNGFDHLLEFEGFGAQDGEKLTSALVEQKLPWNDAFGGLSVEVGRELVWFDDGSTVDVLSPDRGQLESLAPDWVKECAKHGLIPGRDPDEIPLVPGFEHFGGVNVEELAARPFRPDTSKTNLTSIGLLFEFEGKRIILTGDADDRRLVRSIRPRAEAEGGRLHVDVLKVAHHGSDHNLSKDLLDLIDCDRYLISTSGARHDHPNAIAVARILKHGGAKKEIVFNYRDRAAIWDVDSLKDRFGYTVTAPAPDAEDGFVSFEL | failed |
| MNWVTHKPTFEFDNFSPFIRANTAWLGHLEFAYDLVRFEKPEILVELGTHMGASFFSFCQGVKDGGLATKCFAVDTWTGDGHTGPYGEGVFHIVDKVVKTSYPNIGNLIKSTFDEAVDQFQDGTINLLHIDGYHTYEAVSHDYKTWLPKLADNGIVLFHDIEVKDRNFGVYKFWDEVKAKYPHFQFQHSYGLGVLFPKGCSDRFKEILKNKEEIQDMYKLEHHHHHH | not failed |
| MLKSIRYLLTIIICLFVGACQHTQDNEEPNSIRKVNLSKAASFNVQLGLGYLKQGDRPRAKKKLLTALEQQPDSADVNAALAYYFEQTKELEQAKKFYHKAITLSQNGGAQLNNYGAFLCRQGDYKNAETYFLKAVKDQNYVHTSGAYENAGLCAMAIPDHDKAILYFTKALNQDPSRKESLYELVKLQSKIGHDKEALELLQKHADLVLNDKVMLALAKDIANRTGQYTLAAEYENSFNKLEQTNNISGVNDEYNSSNG | failed |
| MANKKNKVKFNICNVHYAPITVADEGKVSFGTPVAMPGAVSISMDPTGEPESFYADGIEYYVINNNQGYDGDLELAMIPETFRTDILKEEADSNNVLVENANSETGSFALLFEFDGDIRKIRHVLYNCSASRPTIESKTNEEDKEVQTETLTIKARPMADGYVKAKTGDSTTDTVYNNWYKSVYLPNSLEHHHHHH | failed |
| MLIKKIDLHKDPIRKLFFYYFIPLAFSMISLSTYSMIDGMFVGKKLGKEAIAAVNIAWPIFPGLIAYELLFGFGAASIVGYFLGQNKTHRARLVFSSVFYFVAISAFILSMALLPFSETIARFFGSNDALLSMSKRYIEIILMGAVFMVLHPLADVFVVNDKRPILAMVAMLIGSLANIFFNYLFIFVLKVGVQGSAIATVIGHAIGVLVLMQHFWRKKGQLYFIKRFSLSSVISSAKSGVPQSTAEFSASVMILLFNTAIMHTAGERFVSMYGIVMYNAIIFFTTLFAISQGIQPIASFSYGARNLERVKEVFVFGLKAAFCIGIVFYGAYYFLDEFLIKLYLQPSEQDPLFMQETKRAMNIYYVGYIFLGMTLLCAVFFQSIQRTKSSFIITLSHTLGFIVILLPILSHFYGINGVWVTYPIAQFLAFLVALGVTYYEIKKGVFTTYKEKNPIALKT | failed |
| MKKRYKNPEKSGSCGNFIQAIKMTDKVQPLESLSKKPEEPKIVVNLRRIKRKIMVMSGKGGVGKSTVAANLAVGLALRGHRVGLLDCDIHGPTVPTIFGLESARPGVSEEGILPIEVLPNLSVMSIGFLLENKDSPIIWRGPAKMGAIKQFLEEVFWGALDFLIIDLPPGTGDEPLSVAQLIPNCDGSVLVTTPQDVALISVRKSITFSEKLNVPIIGLVDNMHGLICPHCGKPIEVFGSGGVEKASKDFNIPILARLPIEPGVAEMEDRGTVVQDQLKHGTEWQKNFDNVVDAVEKILEKELEHHHHHH | not failed |
| MGRRKKILFTDYFINLVDTYKLNQVGERTYNKYCLTHRHLKKICPDLYLQDMNANDYQQILNEFGKTHEKATTVDFHHQLAWALKRAYNVDGLTDRDVTYDAQIPKGVVTNKKKPKFMELDDMKKLVVTLKYLNSSYANFFLILLKTGLRFAELLGITLEDIDFEKKTISINKTLDYKKGAYDENFSRRFKSTKNKYSIRTIPVDDAVIYMFWRNAKGADKDESIFGSIKGFQYNSSLNNKLEQTCKYAGVPVITLHGLRHEHATYLVSQGIDSRAVAERLGHVDDSVTREVYIHRLETERVRDNQQIMRSVSKI | failed |
| MATESSSPSSVRKVVVHLRATGGAPILKQSKFKIPGTDKFAKVIDFLRRQLHSDSLFVYVNSAFSPNPDESVIDLYNNFGFDGKLVVNYACSMAWG | failed |
| MSIDIQLFYLPLHTNNPLILNKQMKLRNVSAGIVLCLTMVSCIQDEALNVEAAIDGCSGTNIQLSTINPSSKTASIYVSKSTDLSALEIKFTLPDGASIEPVNAIANDAPPKYDFSTSQIPITPEQTLEQYQRKFRVTSESETTEAVYTITVIKSELPTNFHFENLVDGSSDYHELYEFNQQQGETLQWASGNPGFKLTGMAKSPFDYPTLQTEGYIGKGIRLETKSTGDFGEKVKMPIAAGNLFIGTFIVKDALRDAKAATKFGFPFFKHPKTLKGYYKFQPGTVYISGTDENRKPIIDPSMEGKDKGDIYAVLYEADDVEDFLDGYNSLNSNKIIALARIPSIEKTSEWKQFELPFEYKKAIDESALKEGKYKLAVVFSSSINGAEFKGSVGSTLWIDEVTIQCKEDNE | failed |
| MNLPPNPVIARGRGRGRKPNNVEANRGFAPSLGQKSDPSHSEGNQASGGNGGGGDAQVGPSIEKSSLSAVQMHKSEGDPRGSVRGRRLITDLVYSRPPGMTSKKGVVGTHITVQANYFKVLKRPNWTIYQYRVDFTPDVEATRLRRSFLY | failed |
| QEIASRLPYFCSGCPHNSSTKVPDGSRAYAGIGCHYMVQWMDRNTQGFTHMGGEGANWIGEAPFSKTKHVFQNLGDGTYNHSGVQAIRAALAAGTNITYKILFNDAVAMTGGQENEGDLSAPRIVAELKAMGVKELAVVYDDKEDVDRSQFPSGIPFHERAELMQVQKRFREIAGVSAIVYIQTCAAEKRRRRKRGTFPDPDKRAFINTDICEGCGDCGVQSNCVSIVPKETELGRKRAIDQSSCNKDFSCVKGFCPSFVTVQGAKIRKEATAEIDL | failed |
| MTAMSPEQSRAIAKKLAFWATLACLLAVVVIMLGAWTRLVHAGLGCPDWPGCYGFLTVPQDETRIAIANARFPETPVDVSKGWPEMIHRYAAGTLGLLVFGLAIASVRKRRAGLPVKLPLFIAGFIVLQAAFGMWTVTLKLWPQVVALHLLGGFTTLSLLLLLTLRLRRRARESEAPRPAMAASLARLRPWLYGGLLLVIAQIALGAWTAANYAAVACTDLPTCQGQWWPEGMDFQHGFDITQHVGPNYLGGQLTSDGRVAIHVSHRLGAVLVLGYLAILLGLLWRQRAQSGLDRAIALVGGALVLQFCLGLTNVWLHIPLIIAVAHNAMGAGLLLSMVHLIWRHHQLALPALSPAPHTTTINREVTA | failed |
| MSVPRPMEGRASGSARIYQAGGDQYIEEHVHHHAPGSAPLFGHPWTGPAEPREAAPDSVRMPLVGRAPRVLRDRTDLMERLRAAVAGPGSDIQVLHGMGGCGKTAVAQALFTEAVRDHGRVGLWVNASERVSLRAGMLAVAGDRGATAGELAAAAGGRRAAADLVWHYLDQSAQPWLLVLDNADDPAVLEEGSWLRPSPSGTVLVTTRHATSSLWRAPATSSHRLGVLPLEDATLVLRDLAPDAGTRESARKVARRLGCLPLALTLAGAHLAHQLLESWSMDEYDRKLTEESTALVDRGASATGGGQSRHLVGRTWQLSLDGLAERGLPEATALLRLLSCWAADPVPLSLLMPAAQGGVGLEHLDPPLAAPRVEPALRALLDHSLIEMVETDGHRCVKAHGVLLDSVAGSVPDAERALLAAAAGGLLRAALPPEGAASPRARSQVRLLAPHATGLLHRSHRHDLVTAESVRLAVRLARLVYEAGDWTAALALASTAAKTAAEHLGAEHPVTIEARSGQGTVLFRLGRYAEAADLLRPVQQEALRTLGPHDERTLDAAYELQRVLHRLGDLAHARTLLDTVLDGRRQALGEDHVATLKTRCELLELRLAQDEFDGYTAAAGELAGECERRLGPEHLVTVWARDALARGLLRSGRGAEAEELFRRVLAGQRAGYGDDHPLVYGVLIQLSRAQYAQGKRERAAESAREVAEGRAVILGEDHPETVAARAWYTEVLATPPAPDDLVG | failed |
| GSGKNLIMIQVEALQGFVVNKSINGKEITPNLNKWINKSLYFDNYFYQVAQGNTSDAEFMSLNSLYPAQSGAAYYTYAGNTFNSIPKDLGDKGYYTAALHGYNEGFWNRNVMYKSEKFDDFYGQTSYKNDEVVGMGLSDESFLNQSLAKMKTFKQPYFSFLITLSSHYPFNDTAGYEKYTMNKLDVGEYKDTLLGNYFEGIHYTDEQLGKFLDKLDKEGLTKNSIIVLYGDHFAIPKENINQLYSFEGIKDPTDLTWYEYQKVPMFIHFPDDEHKGVNHTYSGQMDIYPTIANLYNISNNYMFGEDILNVKDGDSTNVTFRNGSFTDGK | failed |
| MSIYKDINIASAKPSLKERKNIKHYALDHLNIDEKNNAPLFKTLLEDAMRVSSKEILLIVGGSSFYLKSILEGLSRMPKLSGEEVVKIEREIATLSNPYIFLKSIDPNMAFKIHPNDTYRTHKALEIFYATCTPPSEYFKANPKKPFEHAISLFALSIEKSALHNNIKRRTKNMLHSGLVEEIKALYTQYPKDSQPFKAIGVKESVLFLEKRLTLKELEEAITSNTMKLAKRQNTFNKTQFNNLYVGSAEEVRHAILKHSKSGIKG | failed |
| MSSTKRQKNRVLVKLKKRKVRKDKIEKWAELALSALGLNNVELSVYITDDQEIRELNKTYRKKDKPTDVLSFPMGEEFGGYKILGDVVISQDTAERQARELGHSLEEEVKRLIVHGIVHLLGYDHEKGGEEEKKFRELENYVLSKLSKAL | not failed |
